US20240239886A1 (YEDA RESEARCH AND DEVELOPMENT, published 2024)
Where two headings read alike, the source gives them in different places.

T1: human TREM2 (hTREM2) on cells (human, UniProt Q9NZC2 19-230)
T1 construct: also called hTREM2 expressing HEK293
T1 sequence: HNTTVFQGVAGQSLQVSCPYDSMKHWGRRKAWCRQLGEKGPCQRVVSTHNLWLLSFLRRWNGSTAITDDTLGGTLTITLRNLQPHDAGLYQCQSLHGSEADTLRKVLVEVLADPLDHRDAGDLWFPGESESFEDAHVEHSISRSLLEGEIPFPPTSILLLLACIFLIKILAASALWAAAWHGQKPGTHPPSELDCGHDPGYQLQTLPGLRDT

T2: recombinant protein consisting of the extracellular domain of human TREM2 fused to the His tag (human, UniProt Q9NZC2 19-174)
T2 construct: also called His tagged hTREM2; His-TREM2
T2 sequence: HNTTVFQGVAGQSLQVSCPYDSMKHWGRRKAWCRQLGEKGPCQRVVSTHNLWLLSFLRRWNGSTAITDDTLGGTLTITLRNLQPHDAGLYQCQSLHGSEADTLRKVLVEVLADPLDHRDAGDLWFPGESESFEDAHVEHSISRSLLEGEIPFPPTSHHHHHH

T3: soluble TREM2 protein (human, UniProt Q9NZC2 19-157)
T3 construct: also called TREM2 in cell culture supernatant (Sup)
T3 sequence: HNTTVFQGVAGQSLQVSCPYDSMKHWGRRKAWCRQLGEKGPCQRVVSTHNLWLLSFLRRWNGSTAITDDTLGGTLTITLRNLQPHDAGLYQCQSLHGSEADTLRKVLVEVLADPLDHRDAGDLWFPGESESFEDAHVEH

B1: 61B11C9 (antibody, V domains shown)
VH: QLQESGPEQVKPGASVKMSCRTSGYTFTAYNMHWVKQRLGKSLEWIGYIRPTNGDTRYNRRFRDKATLTVDKSSSTTYMELRSLTSEDSAVYYCTRSTTVASFDYWGQGTTLTVSS
VL: DIVMTQTTSSLTVSVGQKITLNCKSSQSLLYTNNQKNFLAWYQQKPGQSPKLLIYWASTRDSGVPDRFTGSGSGTDFTLTITSVMAEDLAVYFCQQYYDFPPTFGGGTKLEIK
notes: Biotin conjugated in sup ELISA, cell-based ELISA and flow cytometry
B2: 60H4A3 (antibody, V domains shown)
VH: EVQLQESGPELVKPGASVKMSCKASGYTFTDYNMHWVKQSHGKSLEWIGYIYPNNGGTGYNQKFKGKATLTVNKSSSTAYMELRSLTSEDSAVYYCARSGRGFAYWGQGTLVTVSA
VL: DIVMTQSPASLSVTPGDRVSLSCRASQSISDYLHWYQQKSHESPRLLIKYASQSISGIPSRFSGSGSGSDFTLSINSVEPEDVGVYYCQNGHSFPYTFGGGTKLEIK
notes: as for B1
B3: 60H4G2 (antibody, V domains shown)
VH: B2 VH
VL: DIVMTQSTSSLTVTAGEKVTMSCKSSQSLLNSGNQKNYLTWYQQKPGQPPKLLIYWASSRESGVPDRFTGRGSGTDFTLTISSVQAEDLAVYYCQNDYSYPFTFGSGTKLEIK
notes: as for B1

Tests used:
[1] = biological target: T1, human TREM2 (hTREM2) on cells; assay: cell-based ELISA, hTREM2 vs WT 293HEK cells
Method: Cells were washed three times with PBS and blocked (5% FBS, 1% BSA in PBS) for 2 hrs at RT. Cells were washed with 1% BSA in PBS and were incubated with 0.1 ug (or indicated amount) obiotinylayed anti hTREM2 antibodies for 4 hrs at RT. After incubation, cells were incubated with streptavidin-HRP (DY998, R&D) for 20 min at RT. The cells were washed and incubated with TMB Reagent (TM4500, Scytek) for 30 min at RT, followed by the addition of Stop Solution 2N Sulfuric Acid (DY994, R&D). OD was measured using an ELISA plate reader at dual wavelengths (450 nm and 570 nm). Biotinylation of Antibodies was done using EZ-Link™ Sulfo-NHS-LC-Biotinylation kit (Thermo Fisher Scientific) according to manufacturer's instructions.
(§1) A. Cells culture supernatant (Sup) was used for soluble TREM2 protein binding capability test of 18 hybridoma derived monoclonal antibodies by direct ELISA. B. Cells were captured in 96 wells plate and were used for cell based ELISA of 18 hybridoma derived monoclonal antibodies. OD values positive cells (hTREM2 expressing HEK293) and negative cells (WT HEK293) are showing in the table.

[2] = biological target: T2, recombinant protein consisting of the …; assay: direct ELISA, coated His-TREM2 0.5 ug/mL, Ab stock 1 mg/mL
Method: (§2) Ninety six-Well ELISA microplate was coated with 0.5 μg/mL, 100 μl/well His tagged hTREM2 diluted in PBS pH 7.4, and incubated at 4° C. overnight. The plate was rinsed three times with 0.05% tween20 in PBS, blocked with 1% BSA in PBS at room temperature (RT) for 1 hr, and rinsed again. The plates was incubated with the anti hTREM2 antibodies (100 μl/well) for 2 hrs at indicated concentration, at RT. Plate was rinsed and incubated with Peroxidase-AffiniPure Goat anti Mouse IgG, Fcg fragment specific (min X Hu, Bov, Hrs, Sr Prot; Jackson ImmunoResearch) for 20 min at RT. The plate was rinsed and incubated with TMB Reagent (TM4500, Scytek) for 20 min at RT, followed by the addition of Stop Solution 2N Sulfuric Acid (DY994, R&D). OD was measured using an ELISA plate reader at dual wavelengths (450 nm and 570 nm)

[3] = biological target: T2, recombinant protein consisting of the …; assay: direct ELISA; highest dilution with S/B >= 2.1
Method: as §2
(§3) Purity is measured by SDS-PAGE. Quantity of endotoxin (EU/mg) is measured by LAL assay. Titer measured by direct ELISA, while the title value is the highest dilution with S/B (Signal/Blank) >= 2.1

[4] = biological target: T2, recombinant protein consisting of the …; assay: direct ELISA
Method: as §2

soluble TREM2 protein = biological target: T3, soluble TREM2 protein; assay: sup ELISA, hTREM2 vs WT 293HEK supernatant
Method: Supernatant was collected, centrifuged for 5 min at 900 g and filtered (0.45 μm). Ninety six-well ELISA microplate was coated with 0.2 μg/well of anti human TREM2 Antibody (AF1828, R&D) diluted in PBS, and incubated at 4° C. overnight. The plate was rinsed three times with 0.05% tween20 in PBS, blocked with 1% BSA in PBS at room temperature (RT) for 1 hr, and rinsed again. The plates was incubated with the cell culture supernatant (100 μl/well) for 2 hrs at RT for and rinsed again. The plate was incubated with 0.1 μg biotinylayed anti hTREM2 antibodies for 2 hrs at RT. After incubation, the plate was rinsed and incubated with streptavidin-HRP (DY998, R&D) for 20 min at RT. The plate was rinsed and incubated with TMB Reagent (TM4500, Scytek) for 20 min at RT, followed by the addition of Stop Solution 2N Sulfuric Acid (DY994, R&D). OD was measured using an ELISA plate reader at dual wavelengths (450 nm and 570 nm)
as §1

[5] = biological target: T1, human TREM2 (hTREM2) on cells; assay: flow cytometry on BMDM
Method: TREM2 KO and hTREM2 BMDM were washed with MACS buffer (PBS pH 7.2, 0.5% BSA and 2 mM EDTA) and stained with biotin conjugated anti hTREM2 antibodies (10 μg/mL) followed by Washing with MACS buffer and APC-streptavidin (Biolegend, 405207) incubation, then analyzed by flow cytometer (LSRII, BD).

[6] = biological target: T2, recombinant protein consisting of the …; assay: direct ELISA; highest dilution with S/B >= 2.1; remark: listed apart in the source
Method: as §2, §3

Binder | Cell based ELISA positive/negative [1] [ratio] | OD at dilution 1000 [2] [OD] | OD at dilution 3000 [2] [OD] | OD at dilution 9000 [2] [OD] | OD at dilution 27000 [2] [OD] | OD at dilution 81000 [2] [OD] | OD at dilution 243000 [2] [OD] | OD at dilution 729000 [2] [OD] | OD at dilution 2187000 [2] [OD] | OD at dilution 6561000 [2] [OD] | OD at dilution 19683000 [2] [OD] | Titer [3] [dilution] | direct ELISA positive/negative [4] [ratio] | sup ELISA positive/negative (293HEK) (soluble TREM2 protein) [ratio] | FACS positive/negative BMDM [5] [ratio] | Titer [6] [dilution]
B1 | 2.46 | 2.75 | 2.76 | 2.88 | 2.58 | 1.92 | 0.985 | 0.405 | 0.169 | 0.099 | 0.066 | 2.19e+06 | 35.1 | 3.05 | 1.47 | 2.19e+06
B2 | 1.89 | 1.84 | 1.8 | 1.9 | 1.63 | 1.16 | 0.763 | 0.322 | 0.17 | 0.113 | 0.063 | 2.19e+06 | 31.5 | 11 | 1.78 | 2.19e+06
B3 | 1.38 | 1.83 | 1.89 | 1.69 | 1.31 | 0.849 | 0.432 | 0.222 | 0.133 | 0.102 | 0.067 | 729000 | 27.4 | 10 | 1.16 | 729000
